According to IntAct's records for PubMed 7538908:

B1: Tumor necrosis factor receptor superfamily member 6 (Homo sapiens), P25445 (parent)
chain: MLGIWTLLPLVLTSVARLSSKSVNAQVTDINSKGLELRKTVTTVETQNLEGLHHDGQFCHKPCPPGERKARDCTVNGDEPDCVPCQEGKEYTDKAHFSSKCRRCRLCDEGHGLEVEINCTRTQNTKCRCKPNFFCNSTVCEHCDPCTKCEHGIIKECTLTSNTKCKEEGSRSNLGWLCLLLLPIPLIVWVKRKEVQKTCRKHRKENQGSHESPTLNPETVAINLSDVDLSKYITTIAGVMTLSQVKGFVRKNGVNEAKIDEIKNDNVQDTAEQKVQLLRNWHQLHGKKEAYDTLIKDLKKANLCTLAEKIQTIILKDITSDSENSNFRNEIQSLV

Variants of: B1
Conditions: with ripk1_human RIPK1, Q13546
Sequence of ripk1_human RIPK1, Q13546 (Q13546 whole entry): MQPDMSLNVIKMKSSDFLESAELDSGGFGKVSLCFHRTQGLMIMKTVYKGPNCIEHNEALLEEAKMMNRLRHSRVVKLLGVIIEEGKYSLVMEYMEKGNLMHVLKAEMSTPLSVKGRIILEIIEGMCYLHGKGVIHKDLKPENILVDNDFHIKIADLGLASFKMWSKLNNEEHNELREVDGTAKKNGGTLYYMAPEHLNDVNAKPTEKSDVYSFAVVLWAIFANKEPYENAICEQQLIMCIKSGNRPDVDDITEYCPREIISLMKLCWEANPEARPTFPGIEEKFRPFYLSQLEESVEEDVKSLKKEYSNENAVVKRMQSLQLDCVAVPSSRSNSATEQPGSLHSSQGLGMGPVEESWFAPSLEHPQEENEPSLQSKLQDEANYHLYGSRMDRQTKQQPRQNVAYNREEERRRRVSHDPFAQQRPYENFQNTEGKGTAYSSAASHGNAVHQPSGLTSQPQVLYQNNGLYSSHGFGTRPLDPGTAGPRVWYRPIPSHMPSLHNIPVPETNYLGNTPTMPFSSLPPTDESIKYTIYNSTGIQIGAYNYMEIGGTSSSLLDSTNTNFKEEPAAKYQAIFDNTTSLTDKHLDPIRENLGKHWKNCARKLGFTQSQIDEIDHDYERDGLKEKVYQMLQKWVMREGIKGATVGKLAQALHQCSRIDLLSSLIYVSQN

Row | effect of a mutation on the interaction | Variant
1 | decreasing interaction | MLGIWTLLPLVLTSVARLSSKSVNAQVTDINSKGLELRKTVTTVETQNLEGLHHDGQFCHKPCPPGERKARDCTVNGDEPDCVPCQEGKEYTDKAHFSSKCRRCRLCDEGHGLEVEINCTRTQNTKCRCKPNFFCNSTVCEHCDPCTKCEHGIIKECTLTSNTKCKEEGSRSNLGWLCLLLLPIPLIVWVKRKEVQKTCRKHRKENQGSHESPTLNPETVAINLSDVDLSKYITTIAGVMTLSQVKGFVRKNGNNEAKIDEIKNDNVQDTAEQKVQLLRNWHQLHGKKEAYDTLIKDLKKANLCTLAEKIQTIILKDITSDSENSNFRNEIQSLV [V254N]
